Test results as given in publication PMC11500499, “Molecular dissection of the chromosome partitioning protein RocS and regulation by phosphorylation”.

Target: T1, RocS WT-ΔAH (Streptococcus pneumoniae R6, UniProt Q8DQ15 1-152)
T1 sequence: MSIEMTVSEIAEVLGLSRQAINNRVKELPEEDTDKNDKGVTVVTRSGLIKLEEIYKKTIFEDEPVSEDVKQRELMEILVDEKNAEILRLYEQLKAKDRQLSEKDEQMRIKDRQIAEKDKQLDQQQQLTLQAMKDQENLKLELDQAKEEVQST
Test: MST; MST: 25 mM Tris/HCl pH 7.5, 100 mM NaCl, 5% glycerol, 0.025% Tween-20, 25 C, 10 nM DNA probe; EMSA: 25 mM Tris/HCl pH 7.5, 100 mM NaCl, 5% glycerol, 100 ng DNA
Conditions: protein: recombinant; tags: C-terminal 6xHis, removed with TEV protease; label: 5' Cy5 on strand 1; blunt

B1: dnaC_Cy5 (dsDNA)
DNA 1: GTCAACCAAGCTTACGAAGCGTCACAACCAGCTGATGAAATTATTGCTCA
DNA 2: TGAGCAATAATTTCATCAGCTGGTTGTGACGCTTCGTAAGCTTGGTTGAC
Kd: 34 µM
